Results on eight molecules are retold here after US20240209107A1 (Sanofi, published 2024).

First the molecules themselves.
T1: human OX40 (10481-H08H, Sino Biological), recombinant (human, UniProt P43489 29-216)
T1 construct: Bought protein
T1 sequence (looked up): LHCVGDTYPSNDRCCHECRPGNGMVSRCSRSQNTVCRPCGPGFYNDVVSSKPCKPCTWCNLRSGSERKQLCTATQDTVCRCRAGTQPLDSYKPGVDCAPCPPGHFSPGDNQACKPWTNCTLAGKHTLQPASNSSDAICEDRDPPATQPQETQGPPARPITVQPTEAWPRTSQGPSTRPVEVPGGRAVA

T2: human OX40 on the surface of cells (HEK293 cells expressing human OX40, jurkat cells engineered to express … (human, UniProt P43489 29-277))
T2 construct: whole, on cells; also called huOX40
T2 sequence (looked up): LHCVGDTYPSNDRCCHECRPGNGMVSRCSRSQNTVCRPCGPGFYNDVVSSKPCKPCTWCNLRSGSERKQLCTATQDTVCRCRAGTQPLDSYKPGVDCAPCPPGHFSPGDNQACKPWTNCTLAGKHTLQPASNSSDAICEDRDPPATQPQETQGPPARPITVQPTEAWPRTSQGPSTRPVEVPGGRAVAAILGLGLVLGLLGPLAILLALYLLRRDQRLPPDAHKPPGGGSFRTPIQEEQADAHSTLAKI

T3: Human OX40 (amino acids 29-170 of human OX40) (human, UniProt P43489 29-170)
T3 construct: range 29-170
T3 sequence (looked up): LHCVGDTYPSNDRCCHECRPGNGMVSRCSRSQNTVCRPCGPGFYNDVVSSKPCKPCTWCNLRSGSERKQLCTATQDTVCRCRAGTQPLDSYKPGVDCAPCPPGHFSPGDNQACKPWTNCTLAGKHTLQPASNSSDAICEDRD

B1: bispecific antibody L1 (anti-CD28 VHH x anti-OX40 Fab, human IgG1 Fc) (bispecific antibody)
light: not shown
heavy: not shown
chain: DVQLVESGGGVVQPGGSLRLSCAASGSFFSIDTMDWYRQAPGKQRELVTGVTSGGLTNYADSVKGRFTISIDNAKNTVYLQMNSLRPEDTALYYCSARIRTSGGGGWSTYWGQGTLVTVSSGGGGSDKTHTCPPCPAPEAAGGPSVFLFPPKPKDTLMISRTPEVTCVVVDVSHEDPEVKFNWYVDGVEVHNAKTKPREEQYNSTYRVVSVLTVLHQDWLNGKEYKCKVSNKALPAPIEKTISKAKGQPREPQVCTLPPSRDELTKNQVSLSCAVKGFYPSDIAVEWESNGQPENNYKTTPPVLDSDGSFFLVSKLTVDKSRWQQGNVFSCSVMHEALHNRFTQKSLSLSPG
notes: Three chains: anti-OX40 light chain (I), anti-OX40 heavy chain (II), anti-CD28 VHH-Fc chain (III); also called lead candidate L1
B2: bispecific antibody L3 (anti-CD28 VHH x anti-OX40 Fab, human IgG1 Fc) (bispecific antibody)
light: not shown
heavy: not shown
chain: B1 chain
notes: Three chains: anti-OX40 light chain (I), anti-OX40 heavy chain (II), anti-CD28 VHH-Fc chain (III); also called lead candidate L3
B3: bispecific antibody L2 (anti-CD28 VHH x anti-OX40 Fab, human IgG1 Fc) (bispecific antibody)
light: not shown
heavy: not shown
chain: B1 chain
notes: Three chains: anti-OX40 light chain (I), anti-OX40 heavy chain (II), anti-CD28 VHH-Fc chain (III); also called lead candidate L2
B4: bispecific antibody L4 (anti-CD28 VHH x anti-OX40 Fab, human IgG1 Fc) (bispecific antibody)
light: not shown
heavy: not shown
chain: DVQLVESGGGVVQPGGSLRLSCAASGFTFSSYYMSWVRQAPGKGLEWVSTINTDGDFTSYADSVKGRFTISRDNAKNTLYLQMNSLRPEDTALYYCARARGPYSRGSQGHDYRGQGTLVTVSSGGGGSDKTHTCPPCPAPEAAGGPSVFLFPPKPKDTLMISRTPEVTCVVVDVSHEDPEVKFNWYVDGVEVHNAKTKPREEQYNSTYRVVSVLTVLHQDWLNGKEYKCKVSNKALPAPIEKTISKAKGQPREPQVCTLPPSRDELTKNQVSLSCAVKGFYPSDIAVEWESNGQPENNYKTTPPVLDSDGSFFLVSKLTVDKSRWQQGNVFSCSVMHEALHNRFTQKSLSLSPG
notes: Three chains: anti-OX40 light chain (I), anti-OX40 heavy chain (II), anti-CD28 VHH-Fc chain (III); also called lead candidate L4
B5: bispecific antibody L6 (anti-CD28 VHH x anti-OX40 Fab, human IgG1 Fc) (bispecific antibody)
light: not shown
heavy: not shown
chain: B4 chain
notes: Three chains: anti-OX40 light chain (I), anti-OX40 heavy chain (II), anti-CD28 VHH-Fc chain (III); also called lead candidate L6
B6: bispecific antibody L5 (anti-CD28 VHH x anti-OX40 Fab, human IgG1 Fc) (bispecific antibody)
light: not shown
heavy: not shown
chain: B4 chain
notes: Three chains: anti-OX40 light chain (I), anti-OX40 heavy chain (II), anti-CD28 VHH-Fc chain (III); also called lead candidate L5
B7: L4 & L6 & L5 CD28 arm VHH (VHH-His) (VHH)
VHH: DVQLVESGGGVVQPGGSLRLSCAASGFTFSSYYMSWVRQAPGKGLEWVSTINTDGDFTSYADSVKGRFTISRDNAKNTLYLQMNSLRPEDTALYYCARARGPYSRGSQGHDYRGQGTLVTVSS
notes: Used as VHH-His in the crystal structure with CD28-His; also called L4, L6 & L5 CD28 VHH; not shown: His tag
B8: prototype OX40 arm Fab (Fab, V domains shown)
VH: EVQLVESGGVVVQPGGSLRLSCAASGFTFDDYTMHWVRQAPGKGLEWVSLISWDGGSTYYADSVKGRFTISRDNSKNSLYLQMNSLRTEDTAVYYCARDNLWGYLTYFDYWGQGTLVTVSS
VL: QSVLTQPPSVSAAPGQKVTISCSGSSSNIGNNYVSWYQQLPGTAPKLLIYDNNKRPSGIPDRFSGSKSGTSATLGITGLQTGDEADYYCGTWDSSLTAYVFGGGTKLTVL
notes: Fab of the OX40 arm of the bispecific CD28-OX40 prototype; also called prototype arm

T7 sequence (P55899 24-297 limits assumed, chain 1 of 2): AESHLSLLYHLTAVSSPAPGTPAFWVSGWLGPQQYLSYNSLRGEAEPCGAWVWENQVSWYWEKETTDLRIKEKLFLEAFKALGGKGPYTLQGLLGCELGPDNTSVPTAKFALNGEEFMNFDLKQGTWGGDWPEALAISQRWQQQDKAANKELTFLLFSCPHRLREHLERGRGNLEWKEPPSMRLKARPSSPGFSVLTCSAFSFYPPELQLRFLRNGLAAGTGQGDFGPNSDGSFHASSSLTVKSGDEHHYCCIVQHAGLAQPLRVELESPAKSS
T7 sequence (P61769 21-119 limits assumed, chain 2 of 2): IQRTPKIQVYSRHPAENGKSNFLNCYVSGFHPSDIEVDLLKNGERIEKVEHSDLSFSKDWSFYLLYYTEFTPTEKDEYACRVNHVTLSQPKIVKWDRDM

One test has as its target T1, human OX40 (10481-H08H, Sino …). In words: SPR (Biacore 8K), bispecific captured by anti-human Fc, antigen as analyte, 1:1 model. (In general: In SPR one partner is held on a chip, and binding of the other changes the refractive index at the surface.)
As for B1, the dissociation constant Kd (usually the constant that tells how readily two partners part at equilibrium) was 4.3 nM.

On to B2, for which the Kd was found to be 8.1 nM.

Consider B3, for which the Kd was 6.9 nM.

For B4, the Kd came to 4.1 nM.

Regarding B5, the Kd was 8.1 nM.

In the case of B6, the Kd amounted to 6.1 nM.

The target of the next test is T4, human CD28 (CD28-3910H, Creative Bio Mart), recombinant (human, UniProt P10747 19-152).
T4 construct: Bought protein
T4 sequence (P10747 19-152 limits assumed): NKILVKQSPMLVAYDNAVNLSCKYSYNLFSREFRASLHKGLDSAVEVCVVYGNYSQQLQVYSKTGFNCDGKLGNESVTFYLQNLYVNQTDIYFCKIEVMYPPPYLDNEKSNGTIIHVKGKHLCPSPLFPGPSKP
Described as above.
B1: the Kd came to 3.6 nM.

Consider B2, for which the Kd was found to be 3.3 nM.

For the molecule B3, the Kd came to 3.23 nM.

On to B4, for which the Kd amounted to 11.9 nM.

On to B5, for which the dissociation constant Kd is 11.3 nM.

On to B6, for which the dissociation constant (Kd) was found to be 9.99 nM.

The next test has as its target T5, cyno OX40 (internal production), recombinant (cynomolgus monkey).
T5 construct: also called Cynomolgus Monkey OX40
Described as above.
As to B1, the Kd was determined as 2.9 nM.

On to B2, for which the Kd was 15 nM.

As for B3, the Kd worked out at 4 nM.

B4: the Kd came out at 3.7 nM.

Take B5: the Kd worked out at 20 nM.

As to B6, the dissociation constant (Kd) was determined as 3.3 nM.

The target in another test is T2, human OX40 on the surface of cells …. Briefly: flow cytometry on HEK293 cells expressing human OX40; anti-human IgG Fc PE secondary; MFI. A general note: In flow cytometry, cells or beads pass a laser one at a time.
Take B1: the EC50 (read off the curve) (usually the concentration at which the effect is half-maximal) was roughly 0.7 nM.

Regarding B2, the “EC50 (read off the curve)” value is roughly 1 nM.

In the case of B3, the “EC50 (read off the curve)” value was roughly 1 nM.

For B4, the “EC50 (read off the curve)” value was roughly 1 nM.

B5: the “EC50 (read off the curve)” value was roughly 1 nM.

On to B6, for which the “EC50 (read off the curve)” value is roughly 1 nM.

The target in another test is T6, CD28-His (amino acids 19-136 of human CD28) (human, UniProt P10747 19-136).
T6 construct: Expressed in Expi293 cells, purified by HisTrap and SEC; also called Human CD28 Amino acids 19-136; not shown: His tag
Briefly: complex formation, SEC, crystal structure.
With B7, the binding result is reported as “binds”.

In a further test the target is T3, Human OX40 (amino acids 29-170 of human …). Briefly: structure of the complex.
For the molecule B8, the binding result is “binds”.

The next test concerns the target T7, human FcRn (Immunitrack, ITF01-200) (human, UniProt P55899 24-297; P61769 21-119).
T7 construct: captured on a Series S Sensor Chip CAP; also called recombinant human FcRN
In words: SPR (Biacore 8K), FcRn captured on CAP chip, bispecific as analyte, pH 6.0, steady state.
In turn, B1 had a Kd of 924 nM.

The molecule B2 had a Kd of 990 nM.

The molecule B3 displayed a Kd of 988 nM.

In the case of B4, the Kd is 574 nM.

On to B5, for which the affinity, expressed as Kd, was 745 nM.

B6 showed a Kd of 714 nM.
